T1: monkey ANGPTL8 expressed with C-terminal mouse IgG2a Fc tag (MfANGPTL8-mFc; SEQ ID NO: 341) (cynomolgus monkey)
T1 construct: also called cynomolgus monkey ANGPTL8
T1 chain: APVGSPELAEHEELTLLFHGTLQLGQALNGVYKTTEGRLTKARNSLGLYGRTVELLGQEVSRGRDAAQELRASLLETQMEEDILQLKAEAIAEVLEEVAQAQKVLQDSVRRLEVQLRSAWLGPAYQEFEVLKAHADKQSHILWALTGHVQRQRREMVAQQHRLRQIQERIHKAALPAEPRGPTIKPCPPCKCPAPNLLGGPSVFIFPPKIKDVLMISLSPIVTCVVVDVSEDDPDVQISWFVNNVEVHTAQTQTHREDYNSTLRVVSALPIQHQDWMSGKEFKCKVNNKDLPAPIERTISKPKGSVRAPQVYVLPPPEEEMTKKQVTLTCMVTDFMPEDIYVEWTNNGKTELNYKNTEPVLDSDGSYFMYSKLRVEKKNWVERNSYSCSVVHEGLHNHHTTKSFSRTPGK

T2: human ANGPTL8 expressed with C-terminal mouse IgG2a Fc tag (hANGPTL8-mFc; SEQ ID NO: 340) (human)
T2 construct: also called Angiopoietin-like protein 8
T2 chain: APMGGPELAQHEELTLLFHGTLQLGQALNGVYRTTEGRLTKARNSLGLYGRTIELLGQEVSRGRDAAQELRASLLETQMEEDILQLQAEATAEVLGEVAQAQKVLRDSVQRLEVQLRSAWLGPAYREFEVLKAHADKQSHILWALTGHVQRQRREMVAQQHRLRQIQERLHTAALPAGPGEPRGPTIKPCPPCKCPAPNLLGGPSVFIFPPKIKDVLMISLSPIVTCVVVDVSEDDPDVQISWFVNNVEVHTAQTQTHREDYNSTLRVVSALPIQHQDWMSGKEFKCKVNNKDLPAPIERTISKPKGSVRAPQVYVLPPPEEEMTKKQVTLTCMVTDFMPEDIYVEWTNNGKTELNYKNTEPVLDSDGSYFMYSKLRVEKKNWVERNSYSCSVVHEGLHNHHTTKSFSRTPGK

T3: peptide from the N-terminal coiled-coil region of human ANGPTL3 (hANGPTL3 peptide, SEQ ID NO: 338) (human)
T3 construct: also called hANGPTL3 shift peptide
T3 peptide: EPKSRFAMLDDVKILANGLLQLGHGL

T4: human ANGPTL8 peptide (hANGPTL8 peptide, SEQ ID NO: 337) (human)
T4 construct: also called N-terminal region ANGPTL8 peptide
T4 peptide: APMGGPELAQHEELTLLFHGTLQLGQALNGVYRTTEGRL

T5: peptide from the N-terminal coiled-coil region of human ANGPTL4 (hANGPTL4 peptide, SEQ ID NO: 339) (human)
T5 peptide: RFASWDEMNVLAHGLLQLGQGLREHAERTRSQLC


Legend:
[1] = target: T6, anti-mFc (AMC) Octet biosensor, blank; experiment: BLI Octet, blank AMC sensor, 100 nM mAb, 25C
T6 construct: Sensor without captured protein, used as blank; also called Blank AMC Sensor
Description: (§1) Binding of ANGPTL8 antibodies to human and monkey ANGPTL8 proteins was investigated using Bio-layer Interferometry with an Octet HTX biosensor platform (ForteBio, A Division of Pall Life Sciences). All experiments were performed at 25° C. in 10 mM HEPES pH 7.4, 150 mM NaCl, 0.05% v/v Surfactant Tween-20, and 1 mg/ml BSA with the reaction multiwell plate agitated at 1000 rpm. Approximately 1.6 nm of human ANGPTL8 produced with a C-terminal mouse IgG2a Fc tag (hANGPTL8-mFc; SEQ ID NO: 340) or cynomolgus monkey ANGPTL8 produced with a C-terminal mouse IgG2a Fc tag (MfANGPTL8-mFc; SEQ ID NO: 341) was captured onto anti-mFc (AMC) Octet biosensors by submerging the sensors into wells containing 10 μg/mL of each protein for 4 minutes. Under the same conditions a negative control protein with the same mFc tag (hLDLR-mFc) was also coupled to the AMC sensor. All four sensors, […] and one blank, were then submerged into wells containing 100 nM of different ANGPTL8 monoclonal antibodies or an isotype control for 4 minutes.

[2] = target: T7, negative control protein with the same mFc tag (hLDLR-mFc) (human; mouse, UniProt P01130 22-788, limits assumed); experiment: BLI Octet, captured antigen, 100 nM mAb, 25C
T7 construct: also called Irrelevant control; not shown: mouse IgG2a Fc tag (same mFc tag as hANGPTL8-mFc)
T7 sequence (P01130 22-788 limits assumed): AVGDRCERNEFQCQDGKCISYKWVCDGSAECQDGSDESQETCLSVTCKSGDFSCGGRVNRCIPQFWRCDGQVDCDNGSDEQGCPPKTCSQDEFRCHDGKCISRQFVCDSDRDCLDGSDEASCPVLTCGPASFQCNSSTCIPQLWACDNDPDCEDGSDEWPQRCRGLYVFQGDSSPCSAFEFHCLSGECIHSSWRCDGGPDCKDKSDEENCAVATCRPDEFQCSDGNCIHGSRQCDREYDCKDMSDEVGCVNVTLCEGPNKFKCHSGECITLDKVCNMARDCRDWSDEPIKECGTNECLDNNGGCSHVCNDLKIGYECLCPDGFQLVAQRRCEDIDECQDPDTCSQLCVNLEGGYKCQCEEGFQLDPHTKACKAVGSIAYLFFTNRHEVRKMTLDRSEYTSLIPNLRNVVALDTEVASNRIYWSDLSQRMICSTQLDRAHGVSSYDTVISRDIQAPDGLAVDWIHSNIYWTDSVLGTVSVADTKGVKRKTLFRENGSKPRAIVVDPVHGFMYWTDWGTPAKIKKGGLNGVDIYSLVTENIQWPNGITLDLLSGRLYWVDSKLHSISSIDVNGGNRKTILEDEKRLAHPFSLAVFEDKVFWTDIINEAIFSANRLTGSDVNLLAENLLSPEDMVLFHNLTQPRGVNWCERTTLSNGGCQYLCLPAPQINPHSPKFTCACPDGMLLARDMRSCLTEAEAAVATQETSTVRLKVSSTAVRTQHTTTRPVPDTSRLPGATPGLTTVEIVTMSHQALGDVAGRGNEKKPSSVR
Description: as §1

[3] = target: T1, monkey ANGPTL8 expressed with …; experiment: BLI Octet, captured antigen, 100 nM mAb, 25C
Description: as §1

[4] = target: T2, human ANGPTL8 expressed with C-terminal …; experiment: BLI Octet, captured antigen, 100 nM mAb, 25C
Description: as §1

[5] = target: T3, peptide from the N-terminal coiled-coil …; experiment: SPR, captured mAb, 500 nM peptide, 25C
Description: (§2) The assay utilized a format where ANGPTL8 antibodies were captured on the sensor surface and peptides were injected over the antibody surface. Peptides from the N-terminal coiled-coil region of human ANGPTL3 (hANGPTL3 peptide, SEQ ID NO: 338) and human ANGPTL4 (hANGPTL4 peptide, SEQ ID NO: 339) were also included as controls. Also included was a control antibody (H4H268P from US2011/0159015A1) that binds to the ANGPTL4 peptide and a negative isotype control antibody. All binding studies were performed in 10 mM HEPES pH 7.4, 150 mM NaCl, 3 mM EDTA, and 0.05% v/v Surfactant Tween-20 (HBS-ET running buffer) at 25° C. The HCA sensor surface was derivatized via amine coupling to a monoclonal mouse anti-human Fc antibody (GE, # BR-1008-39), and to this surface was captured approximately 1000 RU of each ANGPTL8 antibody or control antibody. Peptide stock solutions were diluted in HBS-ET running buffer to 500 nM and injected over the antibody-captured surfaces for 4 minutes at a flow rate of 30 μL/minute followed by the dissociation of bound peptide in HBS-ET running buffer for 10 minutes.
(§3) Dissociative half-lives (t½) were calculated from kd as: […]

[6] = target: T4, human ANGPTL8 peptide (hANGPTL8 …); experiment: SPR, captured mAb, 500 nM peptide, 25C
Description: as §2, §3

[7] = target: T5, peptide from the N-terminal coiled-coil …; experiment: SPR, captured mAb, 500 nM peptide, 25C
Description: as §2, §3

| Binder | mAb Binding Response (nm) [1] | mAb Binding Response (nm) [2] | mAb Binding Response (nm) [3] | mAb Binding Response (nm) [4] | 500 nM hANGPTL3 peptide Bound (RU) [5] | binding result [5] | 500 nM hANGPTL8 peptide Bound (RU) [6] | binding result [6] | 500 nM hAngPTL4 peptide Bound (RU) [7] | binding result [7] | koff [6] | t½ [6] |
| --- | --- | --- | --- | --- | --- | --- | --- | --- | --- | --- | --- | --- |
| H4H15318P (antibody, human IgG4, V domains shown, H4H prefix: human IgG4 Fc) VH: QVQLVESGGGVVQPGRSLRLSCTASGFTFGNFGIHWVRQAPGKGLEWVAVISYDGTDKFYADPVKGRFIISRDNSMNILYLQMNSLRAEDTAVYYCAKDGEMELRGYYYYYGMDVWGQGTTVTVSS VL: DIQMTQSPSSVSASVGDRVTITCRASQGINTWLAWYQQKPGTAPKLLIFAASSLESGVPSRFSGSGFGTDFTLTISSLQSEDLATYFCQQVHSPPYTFGQGTKLEIK | 0.01 nm | 0.01 nm | 0.2 nm | 0.19 nm | 0 RU | no binding (tested: <9 RU at 500 nM peptide) | 0 RU | no binding (tested: <9 RU at 500 nM peptide) | 0 RU | no binding (tested: <9 RU at 500 nM peptide) |  |  |
| H4H15319P (antibody, human IgG4, V domains shown, H4H prefix: human IgG4 Fc) VH: EVQLVESGGGVVRPGGSLRLSCAASGFTVDDYDMSWVRQTPGKGLEWISGINWNGGNTGYADSVKGRFIISRDSAKNSLFLQMNSLRAEDTALYHCWGAIGAFDIWGQGTMVTVSS VL: DIVMTQSPLSSPVTLGQPASISCRSSQSLVHSDGGTYLSWLQQRPGQPPRLLIYKIFNRFSGVPDRFSGSGAGTDFTLRISRVEAEDVGVYYCMQTTQFPLTFGGGTKVEIK | 0 nm | -0.01 nm | 0.26 nm | 0.22 nm | 0 RU | no binding (tested: <9 RU at 500 nM peptide) | 0 RU | no binding (tested: <9 RU at 500 nM peptide) | 0 RU | no binding (tested: <9 RU at 500 nM peptide) |  |  |
| H4H15314P2 (antibody, human IgG4, V domains shown, H4H prefix: human IgG4 Fc) VH: QVQLVQSGAEVKKPGASVKVSCKASGYTFTSYDINWVRQATGQGLEWMGWMNPNGDNTGYAQKFQGRVTMTGDTSISTAYMELSSLRSEDTAVYYCAREGIWGFDPWGQGTLVTVSS VL: DIQMTQSPSSLSASVGDRVTITCRASQDIRNDLGWYQQKPGKAPKRLIYAASSLQSGVPSRFSGSGSGTEFTLTISSLQPEDFATFYCLQHNTFPRTFGQGTKVEIK | 0 nm |  | 0.01 nm | 0.04 nm | 0 RU | no binding (tested: <9 RU at 500 nM peptide) | 0 RU | no binding (tested: <9 RU at 500 nM peptide) | 1 RU | no binding (tested: <9 RU at 500 nM peptide) |  |  |
| H4H15350P2 (antibody, human IgG4, V domains shown, H4H prefix: human IgG4 Fc) VH: EVQLVESGGGLVQPGGSLRLSCAASGFTFSSFRMTWVRQAPGKGLEWVANIKQDGSEKYYVDSVKGRFTISRDNAKNSLYLQMNSLRAEDTAVYYCARGGGIAAYWGQGTLVTVSS VL: not shown | -0.01 nm | 0 nm | 0.2 nm | 0.17 nm | 0 RU | no binding (tested: <9 RU at 500 nM peptide) | 0 RU | no binding (tested: <9 RU at 500 nM peptide) | 0 RU | no binding (tested: <9 RU at 500 nM peptide) |  |  |
| H4H15345P (antibody, human IgG4, V domains shown, H4H prefix: human IgG4 Fc) VH: EVQLVESGGGLVQPGGSLRLSCAASGFTFSTYAMSWVRQAPGKGLEWVSVISGSFISTYYADSVKGRFTISRDNSKNTLYLQMTSLRAEDTAVYYCAKNSPFDYWGQGTLVTVSS VL: not shown | 0.01 nm | 0 nm | 0.31 nm | 0.25 nm | 0 RU | no binding (tested: <9 RU at 500 nM peptide) | 37 RU |  | 0 RU | no binding (tested: <9 RU at 500 nM peptide) | 2.03e-05 s⁻¹ | 9.5 h |
| H4H15323P (antibody, human IgG4, V domains shown, H4H prefix: human IgG4 Fc) VH: EVQLVESGGGLVQPGGSLRLSCAASGFTFSSYAMTWVRQAPGKGLEWVSAISGSGGSTYYTDSVKGRFTLSRDNSKNTLYLQMNSLRAEDTAVYYCAKSDYSNTIYWYYGMDVWGQGTTVTVSS VL: not shown | 0 nm | 0 nm | 0.15 nm | 0.18 nm | 0 RU | no binding (tested: <9 RU at 500 nM peptide) | 0 RU | no binding (tested: <9 RU at 500 nM peptide) | 0 RU | no binding (tested: <9 RU at 500 nM peptide) |  |  |
